From patent US20160159906A1 (Genentech, published 2016)

T1: human CD79b (human, UniProt P40259 29-229)
T1 construct: Endogenous CD79b on BJAB / BJAB-luciferase cells (FACS) and on human B cells (killing assays); also called huCD79b; Igβ
T1 sequence: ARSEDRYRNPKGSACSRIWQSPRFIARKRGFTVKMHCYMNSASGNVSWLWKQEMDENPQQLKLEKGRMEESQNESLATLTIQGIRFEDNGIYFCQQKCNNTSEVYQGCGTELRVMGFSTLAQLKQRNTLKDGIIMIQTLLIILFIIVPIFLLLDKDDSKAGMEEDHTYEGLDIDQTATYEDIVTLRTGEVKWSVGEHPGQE

B1: CD79b.A7, dual arm, bivalent anti-CD79b antibody (antibody, V domains shown)
VH: QVQLQQPGVELVRPGASVKLSCKASGYTFTTYWMNWVRQRPGQGLDWIGMIDPSDSETHYNQMFKDKATLTVDKSSSTAYIQLNSLTSEDSAVYYCSRSLAFWGQGTLVTVSA
VL: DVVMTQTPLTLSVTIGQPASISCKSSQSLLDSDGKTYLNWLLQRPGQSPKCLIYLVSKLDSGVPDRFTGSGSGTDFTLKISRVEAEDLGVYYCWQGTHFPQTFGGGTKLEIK
notes: Mouse hybridoma clone; also called CD79.A7; muCD79b.A7

Columns and labels:
human CD79b = target: T1, human CD79b; assay: FACS on BJAB cells (FIG. 3B); dual arm, bivalent antibody
Experimental: BJAB cells were incubated with anti-CD79b antibody (bivalent, dual arm antibody) or anti-CD79b/CD3 TDB antibody as indicated for 30 minutes on ice. At the end of the incubation, cells were washed with ice cold FACS buffer (lx PBS, 2% BSA, 2mM EDTA), followed by incubation with PE-labeled mouse anti-human IgG antibody (BD bioscience #555787). Flow cytometry analysis was done on a BD LSR analyzer. Antibody binding was expressed as Mean Fluorescence Intensity (MFI) of PE fluorophore. A: The bivalent binding affinity of anti-CD79b clone 2F2 comparing to monovalent binding affinity of anti-CD79b clones 2F2, SN8v28, and SN8new (as K&H TDBs); B: bivalent binding affinity of anti-CD79b clones CD79b.F6 and CD79b.A7 comparing to monovalent binding of anti-CD79b clones CD79b.F6, CD79b.A7, and SN8v28 (as bisfab or K&H TDBs); C: bivalent binding affinity of anti-CD79b clone CD79b.A7.v14 comparing to monovalent binding of anti-CD79b clone CD79b.A7.v14 (as K&H TDBs).
The monovalent and bivalent anti-CD79b antibody binding affinity was also evaluated in order to better understand the contribution, if any, to B cell killing activity. Binding affinity of dual arm, bivalent anti-CD79b antibodies and bispecific anti-CD79b/ CD3 antibodies using BJAB cells were also analyzed. […]

[1] = target: B1; assay: FACS on BJAB cells, peptide competition of CD79b.A7 binding (data not shown)

Binder: B1
- EC50 (human CD79b): 0.31 µg/mL

Binder: AKSEDLYPNPKGSACSRIWQS
- binding result [1]: no binding
